Measurements published in article doi:10.1101/2024.12.12.628104 (bioRxiv, 2024).

Biological target: the molecule itself
Experiment: […]; 50 uM, […], pH 6.9; […]

B1: Francisella tularensis dihydrolipoyl dehydrogenase (IPD) (enzyme)
chain: MSDIKTQVVVLGSGPGGYSAAFRAADLGLEVVLVERYAEIGGVCLNVGCIPSKAMLHIAKVINEARHLESLGIIEMGGLKINRENLLKYKDGVIGKLTGGLKGMAQMRKVKIVQGYGKFTSDKELAVEAADGKVTKIAFDNCIIAAGSSVIKLPFVPEDDRIIDSTGALEMKEIPETMLVVGGGIIGLEMAQVYSELGTKITVVEFADQLMNGVDKDLVKAYQKVNSRYDVRLKTAVTAMEAKEDGIYVTMEGDHPAKDERFDRVLMAIGRKPNGKLIDAEKAGVKVDERGFIPVDKQLRTNVPHIFAIGDIVGQPMLAHKAVPEGRTAAEVISGLNHSFDPLVIPSVAYTDPEVAWVGETETSAKAKGIKYEKGVFPWAASGRSLSIDRSEGMTKILFDENHKIIGASIVGTHAGELISEAAIAIEMGCDAEDIALTVHPHPTLSESLMMATEVYEGTATDLPPQKKKK
notes: also called dihydroprolyl dehydrogenase; Francisella IPD
With B1 the “stoichiometry N” value was 2.
